Experimental findings from PMC11565642, “ATP-Triggered Fe(CN)2CO Synthon Transfer from the Maturase HypCD to the Active Site of Apo-[NiFe]-Hydrogenase” (Journal of the American Chemical Society, 2024) are described below.

Data set [1] deals with the molecule itself. Briefly: SEC; holo-HypCS-D after Strep-Tactin affinity chromatography, Superdex 200 Increase 10/300 GL; oligomers separated from the HypCD complex. In general terms: In gel filtration, larger molecules generally elute earlier.
Data set [2] deals with T1, HypD from Escherichia coli (Escherichia coli, UniProt P24192 1-373).
T1 construct: HypD, [4Fe-4S] cluster-containing hydrogenase maturation factor, Escherichia coli; Carries a [4Fe-4S] cluster; No tag is named for HypD in the complexes; also called EcHypD; HypD part of HypCS-D and HypCH-D
T1 sequence (looked up): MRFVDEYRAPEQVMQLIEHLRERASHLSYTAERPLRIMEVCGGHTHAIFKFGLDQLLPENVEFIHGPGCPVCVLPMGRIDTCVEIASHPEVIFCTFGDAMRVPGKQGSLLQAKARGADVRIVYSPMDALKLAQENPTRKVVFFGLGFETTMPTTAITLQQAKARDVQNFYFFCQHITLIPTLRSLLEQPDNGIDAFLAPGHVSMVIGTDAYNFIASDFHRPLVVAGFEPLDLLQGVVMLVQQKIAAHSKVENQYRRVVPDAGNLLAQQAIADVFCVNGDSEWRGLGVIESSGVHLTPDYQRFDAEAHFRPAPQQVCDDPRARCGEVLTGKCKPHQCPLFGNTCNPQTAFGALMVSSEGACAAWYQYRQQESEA
Briefly: pull-down; Strep-Tactin affinity chromatography by the Strep-tag II on HypC from soluble extracts of aerobically cultivated E. coli co-producing HypC_(Strep) and HypD (apo: pTHypDC_(Strep); holo: pTHypDEFC_(Strep)); 4 °C; SDS-PAGE of the isolated complexes. The note with it: partners not purified.

B1: HypC_(Strep) (HypC from Escherichia coli with Strep-tag II C-terminally fused) (natural protein, UniProt P0AAM3 1-90, looked up)
chain: MCIGVPGQIRTIDGNQAKVDVCGIQRDVDLTLVGSCDENGQPRVGQWVLVHVGFAMSVINEAEARDTLDALQNMFDVEPDVGALLYGEEK
notes: HypC, hydrogenase maturation factor, Escherichia coli; residue numbers count with Met1 as 1; also called EcHypC; HypC part of apo-HypCS-D and holo-HypCS-D; source: holo form additionally by size-exclusion chromatography; not shown: Strep-tag II, C-terminal, kept
Regarding B1, the binding result in data set [1] and in data set [2] was “binds” throughout.
